Article PMC3781043, “A Transcript Profiling Approach Reveals an Abscisic Acid-Specific Glycosyltransferase (UGT73C14) Induced in Developing Fiber of Ligon lintless-2 Mutant of Cotton (Gossypium hirsutum L.)” (PLoS ONE, 2013)

Assays:
[1] = substrate: CC1=CC(=O)CC(C)(C)[C@@]1(O)/C=C/C(C)=C/C(=O)O; test: HPLC-MS of ABA glucoside formed, hyperbolic regression; assay type: biochemical, Gossypium hirsutum; conditions: 2.5 mM UDP-glucose as sugar donor, 50 mM MgCl2, 500 µM ATP, 50 mM Tris-HCl pH 8.0, 30°C
Source text: (§1) HPLC-MS of ABA glucoside formed, hyperbolic regression on UGT73C14

[2] = substrate: CC1=CC(=O)CC(C)(C)[C@@]1(O)/C=C/C(C)=C\C(=O)O; test: as above; assay type: biochemical, Gossypium hirsutum; conditions: 2.5 mM UDP-glucose as sugar donor, 50 mM MgCl2, 500 µM ATP, 50 mM Tris-HCl pH 8.0, 30°C
Source text: as §1

B1: UGT73C14 (Gossypium hirsutum) (protein)
chain: AQGHFVLIPFMAQGHLIPMVDIGRLLAQRGVTVTIVTTPYNAGRVQKSVARAIESGLPIRLLQLQFPGKEVGLIDGVENIDMLHSMEDLIKFVSAANKMEEAMLKLFEKLTPRPNCIISDINLFYTRKIASKFQVPKISFHGFCCFCLLCLRNIQSSKINETVTSDSEYFTVPGLTDKVEFTRVQLPLDNDGSWKEIFEPMWEADRASYGVVINTFEELESAYVKEYRKEKKAWCIGPVSLSHKDELDMAERGNKTSIDGQKCLKWLDSQQPGSVIYACLGSIGTIKCPELIELGLGLEASNKPFIWVLRGNNPTASEVYKWIRRNEFEERTKGRGLVVVGWAPQVLILSHPAIGGFLTHCGWNSIIEGISAGVPLITFPFMGDQFCNEKLAVQILKIGVNLGANKPTMLGDEKSGFILNTEHVKNAIDKLMEQGNEGKEMRKRAKELGDEANKAVEVGGSSYMNITLLIQDILQQSQEMR
notes: about 99 kDa
- Km [1]: 98.1 µM
- Vmax [1]: 82.9 µmol/min
- kcat [1]: 2.7 s⁻¹
- kcat/Km [1]: 27100 M⁻¹ s⁻¹
- Km [2]: 61.7 µM
- Vmax [2]: 221 µmol/min
- kcat [2]: 7.2 s⁻¹
- kcat/Km [2]: 115000 M⁻¹ s⁻¹
